# Columns and labels:
# [1] = Pharmacokinetics of orally dosed insulin emulsion particles in STZ-treated rats (Example 3), plasma insulin; details: 5 IU/kg s.c. control
# Text: Parameters were estimated using Watson pharmacokinetic software 7.4.2 (Thermo Electron Corporation) using a non-compartmental approach consistent with the various routes of administration. All parameters were generated from Insulin individual animal concentrations in plasma. Parameters were estimated using nominal sampling times to be relative to the start of each dose administration (within an acceptable tolerance limit).
# The area under the test item concentration versus time curve (AUC) was calculated using the linear-log linear trapezoidal method. AUC was not calculated for PK profiles with less than 3 consecutive quantifiable concentrations of test article at separate time points. When practical, the terminal elimination phase of each concentration versus time curve was identified using at least the final three observed concentration values. The slope of the terminal elimination phase was determined using linear regression on the unweighted concentration data. […] The parameters described below were reported to 3 significant figures.
# blood glucose [2] = assay: Blood glucose after dosing in STZ type I diabetes model (Example 5); type: in vivo, Sprague-Dawley(SD) rats; details: 5 IU/kg s.c. control
# [3] = in 0.01N HCl; cited from earlier work
# blood glucose [4] = assay: Blood glucose after dosing in STZ type I diabetes model (Example 3); type: in vivo, Sprague-Dawley(SD) rats; details: 5 IU/kg s.c. control
# Procedure: Animals were monitored for blood glucose levels daily over 10 days using a handheld glucometer to verify the disruption of insulin production. […] Prior to the experimental procedure, animals were weighed and randomized into groups based on body weight. All rats were then fasted for five hours prior to dosing.
# Control animals were given 5 IU/kg s.c. or 2.5 IU/kg i.v., while experimental animals were dosed orally with 50 IU/kg of microemulsion particles. Food was returned immediately post-dosage and blood was collected at the indicated time points (15, 30, 30, 60, 90, 120, 150, 180, 210, 240, 270, 300, 480, 720, and 1440) over a 24 hr. period. Whole blood was processed to plasma and analyzed for insulin quantity.
# Mean insulin and glucose concentrations from the blood of animals were assessed following dosing of 5 IU/kg subcutaneous insulin, 50 IU/kg per os (p.o., i.e., orally) administered TA-3 (BCC with zinc), 50 IU/kg p.o. administered TA-4 (zinc without BCC), and 50 IU/kg p.o. administered TA-7 (BCC without zinc).
substance,measurement,setting,value
insulin,blood insulin levels after s.c. administration,[1],rapid appearance and peak of insulin in the blood
same,blood glucose concentrations after s.c. injection,blood glucose [2],drop in blood glucose concentrations beginning just as insulin is detected in the blood
same,solubility,[3],20 mg/mL
same,blood glucose after s.c. administration,blood glucose [4],corresponding declines in blood glucose
